# From patent US20200276326A1
# What was measured:
# [1] = target: human CD5 on cells (MOLT-4 human T lymphoblast cells; primary human T-cells) (human) (UniProt P06127); experiment: flow cytometry on MOLT-4 cells, anti-mouse AF488 secondary, 4 C
# [2] = target: human CD5 on cells (MOLT-4 human T lymphoblast cells; primary human T-cells) (human) (UniProt P06127); experiment: flow cytometry on primary human T-cells, AF488 secondary, antibody titration at 37 C
# [3] = target: purified human CD5 ectodomain (human) (UniProt P06127); experiment: BLI (Octet Red96), antibody on anti-human Fc biosensors, 50 nM CD5 ectodomain, 25 C
EC50 [1],EC50 [2],Kd [3],Response [3],koff [3],kon [3],Molecule
0.354 nM,,,,,,murine anti-CD5 antibody UCHT2 (BioLegend)
0.043 nM,,,,,,murine anti-CD5 antibody CRIS-1 (Novus Biologicals)
,0.003 nM,0.141 nM,0.67 nm,3.36e-05 s⁻¹,239000 M⁻¹ s⁻¹,"anti-CD5 antibody 5D7 hIgG1 (humanized version of murine antibody 5D7) (antibody, V domains shown) VH: QVTLKESGPVLVKPTETLTLTCTFSGFSLSTSGMGVGWIRQAPGKGLEWVAHIWWDDDVYYNPSLKSRLTITKDASKDQVSLKLSSVTAADTAVYYCVRRRATGTGFDYWGQGTLVTVSS VL: NIVMTQSPSSLSASVGDRVTITCQASQDVGTAVAWYQQKPDQSPKLLIYWTSTRHTGVPDRFTGSGSGTDFTLTISSLQPEDIATYFCHQYNSYNTFGSGTKLEIK"
